{"source": "patent US7314919", "biological_target": "His-tagged recombinant full-length HCV NS3 protein (aa 1027 to aa 1657 of the HCV polyprotein, 1b genotype), purified from E. coli (hepatitis C virus, 1b genotype)", "experiment": "cell-based or functional assay", "data": [{"binder": "Human recombinant anti-NS3 Fab (HFab-aNS3) (Fab, V domains shown) VH: LEESGGGLVKPGGSLRLSCVASGLTFSRYNMQWVRQAPGKGLEWVASISTSGVYIYYADSVTGRFTISRDNSKNSLYLQMNSLGAEDTAVYYCARDLTFLCGGDCLQPWGQG VL: AELTQSPSSLSASVGDRVTITCRASQGISRYLAWFQQRPGKAPKSLIYAASHLQSGVPSRFSASGSGTEFTLSISSLQPEDFATYYCQQYDTYPYTFGQGTKLEIKR", "values": [{"measurement": "inhibition of NTPase activity", "result": 15, "unit": "%"}, {"measurement": "inhibition of helicase activity", "result": 54, "unit": "%"}]}]}
